This note sets out measurements from US20140274782A1, “AFFINITY REAGENTS AND METHODS FOR DETECTION, PURIFICATION, AND PROTEOMIC ANALYSIS OF METHYLATED PROTEINS” (The Board of Trustees of the Leland Stanford Junior …, priority 2013, published 2014).

In experiment [1] the target is T1, G9a and GLP (Homo sapiens, UniProt Q96KQ7+Q9H9B1).
T1 sequence (Q96KQ7 2-1210 limits assumed): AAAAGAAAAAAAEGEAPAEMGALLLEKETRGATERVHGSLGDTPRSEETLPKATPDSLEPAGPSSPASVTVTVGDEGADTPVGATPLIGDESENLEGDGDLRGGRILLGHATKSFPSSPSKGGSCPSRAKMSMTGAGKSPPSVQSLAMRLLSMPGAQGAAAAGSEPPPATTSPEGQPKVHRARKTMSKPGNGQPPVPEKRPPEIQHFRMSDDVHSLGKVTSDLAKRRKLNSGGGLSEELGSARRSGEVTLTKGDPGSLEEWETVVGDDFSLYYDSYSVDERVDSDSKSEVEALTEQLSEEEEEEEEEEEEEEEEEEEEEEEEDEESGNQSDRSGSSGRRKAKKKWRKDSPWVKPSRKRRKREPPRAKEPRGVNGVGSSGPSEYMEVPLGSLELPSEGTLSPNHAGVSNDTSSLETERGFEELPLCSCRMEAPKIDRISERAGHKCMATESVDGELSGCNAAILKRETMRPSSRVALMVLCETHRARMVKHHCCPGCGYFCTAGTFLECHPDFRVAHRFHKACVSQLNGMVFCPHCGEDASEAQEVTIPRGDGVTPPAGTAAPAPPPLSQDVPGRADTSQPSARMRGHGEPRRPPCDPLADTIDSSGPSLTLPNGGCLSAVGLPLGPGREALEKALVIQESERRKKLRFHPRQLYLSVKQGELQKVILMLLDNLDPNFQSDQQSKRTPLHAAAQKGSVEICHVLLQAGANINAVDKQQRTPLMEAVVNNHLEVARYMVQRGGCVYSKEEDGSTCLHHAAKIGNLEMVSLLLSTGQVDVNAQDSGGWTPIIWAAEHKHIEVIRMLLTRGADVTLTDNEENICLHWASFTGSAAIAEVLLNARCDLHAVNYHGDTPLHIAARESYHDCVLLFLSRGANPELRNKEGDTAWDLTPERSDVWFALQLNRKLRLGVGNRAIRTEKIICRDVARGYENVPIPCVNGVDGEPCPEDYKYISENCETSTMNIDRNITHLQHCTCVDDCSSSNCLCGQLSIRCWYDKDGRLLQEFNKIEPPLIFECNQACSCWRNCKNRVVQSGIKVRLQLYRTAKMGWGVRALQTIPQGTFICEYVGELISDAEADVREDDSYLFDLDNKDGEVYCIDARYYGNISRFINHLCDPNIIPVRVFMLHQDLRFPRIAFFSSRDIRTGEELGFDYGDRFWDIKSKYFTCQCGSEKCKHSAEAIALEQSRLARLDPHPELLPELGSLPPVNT
T1 sequence (Q9H9B1 2-1298 limits assumed): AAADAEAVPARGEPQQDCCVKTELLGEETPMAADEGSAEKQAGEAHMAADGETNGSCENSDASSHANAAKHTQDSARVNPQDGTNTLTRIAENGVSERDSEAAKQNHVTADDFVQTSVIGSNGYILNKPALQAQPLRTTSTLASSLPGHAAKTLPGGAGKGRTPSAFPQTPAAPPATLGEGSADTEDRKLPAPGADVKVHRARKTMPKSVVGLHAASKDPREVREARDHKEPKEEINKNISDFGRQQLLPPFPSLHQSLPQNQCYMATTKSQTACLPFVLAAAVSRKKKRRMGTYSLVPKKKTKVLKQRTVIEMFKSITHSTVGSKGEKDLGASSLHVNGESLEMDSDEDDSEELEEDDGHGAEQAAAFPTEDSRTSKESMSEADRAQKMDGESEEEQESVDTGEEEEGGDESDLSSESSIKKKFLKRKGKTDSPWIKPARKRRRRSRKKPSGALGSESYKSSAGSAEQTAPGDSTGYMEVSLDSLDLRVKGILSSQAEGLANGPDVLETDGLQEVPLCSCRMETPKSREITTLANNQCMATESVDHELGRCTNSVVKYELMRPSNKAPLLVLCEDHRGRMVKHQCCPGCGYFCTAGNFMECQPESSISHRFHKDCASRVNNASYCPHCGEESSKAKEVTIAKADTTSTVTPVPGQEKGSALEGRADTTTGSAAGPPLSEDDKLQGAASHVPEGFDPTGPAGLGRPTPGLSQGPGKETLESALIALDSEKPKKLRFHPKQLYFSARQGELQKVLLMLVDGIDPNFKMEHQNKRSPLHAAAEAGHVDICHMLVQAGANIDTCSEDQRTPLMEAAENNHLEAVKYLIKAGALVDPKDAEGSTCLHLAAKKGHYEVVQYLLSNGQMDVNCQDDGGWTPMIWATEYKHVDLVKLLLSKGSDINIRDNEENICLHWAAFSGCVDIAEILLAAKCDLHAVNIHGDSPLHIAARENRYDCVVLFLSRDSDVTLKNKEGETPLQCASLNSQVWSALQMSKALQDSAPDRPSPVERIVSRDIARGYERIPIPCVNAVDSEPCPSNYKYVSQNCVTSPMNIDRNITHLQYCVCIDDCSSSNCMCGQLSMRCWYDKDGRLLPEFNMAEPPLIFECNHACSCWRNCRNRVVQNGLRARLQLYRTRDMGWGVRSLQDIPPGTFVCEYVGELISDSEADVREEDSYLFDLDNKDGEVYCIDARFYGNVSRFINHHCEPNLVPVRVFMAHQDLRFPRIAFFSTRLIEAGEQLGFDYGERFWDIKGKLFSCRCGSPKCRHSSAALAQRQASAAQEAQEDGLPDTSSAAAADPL
Nature of the experiment: Triple SILAC pull-down after UNC0638 treatment of 293T cells, DMSO/UNC0638 ratio of protein captured by 3×MBT.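 On all read-outs here: mass spectrometry (Q-Exactive) SILAC quantitation, DMSO/UNC0638 ratio computed after subtracting 3×MBTD355N mutant pull-down background, only proteins with at least twofold 3×MBT over mutant signal considered.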 The settings on record: for Relative to UNC0638 UNC Heavy / Relative to UNC0638 UNC Light: SILAC ratio DMSO/UNC0638 of protein pulled down with 3xMBT; for Relative to UNC0638 UNC Heavy: UNC0638 in heavy SILAC media; for Relative to UNC0638 UNC Light: UNC0638 in light SILAC media; for Relative to UNC0638 Average: average of UNC Light and UNC Heavy experiments. Type of experiment: cell-based. Also on record: endogenous in cells; host or cells: HEK 293T.

In experiment [2] the test system is 3×MBT domain of L3MBTL1. The experiment is described as follows: Triple SILAC pull-down, 3xMBT/3xMBTD355N ratio (cytoplasmic, nuclear and chromatin fractions of 293T cells).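 On all read-outs here: proteins quantified with MaxQuant, requiring at least two unique peptides and quantification in both label directions, normalized to the mean of proteins from a digested loading control.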 Type of experiment: binding, human. The settings on record: SILAC ratio, pull-down 3xMBT vs 3xMBTD355N; for 3xMBT/D355N UNC Heavy: experiment with UNC0638 in heavy SILAC media; for 3xMBT/D355N UNC Light: experiment with UNC0638 in light SILAC media.

B1: HNRNPH1 (protein, UniProt P31943 1-449, looked up)
Heterogeneous nuclear …: MMLGTEGGEGFVVKVRGLPWSCSADEVQRFFSDCKIQNGAQGIRFIYTREGRPSGEAFVELESEDEVKLALKKDRETMGHRYVEVFKSNNVEMDWVLKHTGPNSPDTANDGFVRLRGLPFGCSKEEIVQFFSGLEIVPNGITLPVDFQGRSTGEAFVQFASQEIAEKALKKHKERIGHRYIEIFKSSRAEVRTHYDPPRKLMAMQRPGPYDRPGAGRGYNSIGRGAGFERMRRGAYGGGYGGYDDYNGYNDGYGFGSDRFGRDLNYCFSGMSDHRYGDGGSTFQSTTGHCVHMRGLPYRATENDIYNFFSPLNPVRVHIEIGPDGRVTGEADVEFATHEDAVAAMSKDKANMQHRYVELFLNSTAGASGGAYEHRYVELFLNSTAGASGGAYGSQMMGGMGLSNQSSYGGPASQQLSGGYGGGYGGQSSMSGYDQVLQENSSDFQSNIA
Turning to B1, in experiment [1], the “Relative to UNC0638 UNC Heavy” value came to 0.24 log base 2, the “Relative to UNC0638 UNC Light” value came to 0.19 log base 2 and the “Relative to UNC0638 Average” value is on record as 0.21 log base 2. In experiment [2], the “3xMBT/D355N UNC Heavy” value amounted to 1.85 log base 2 and the “3xMBT/D355N UNC Light” value is 2.27 log base 2.

B2: RALY (protein, UniProt Q9UKM9 2-306, looked up)
RNA-binding protein Raly: SLKLQASNVTNKNDPKSINSRVFIGNLNTALVKKSDVETIFSKYGRVAGCSVHKGYAFVQYSNERHARAAVLGENGRVLAGQTLDINMAGEPKPDRPKGLKRAASAIYSGYIFDYDYYRDDFYDRLFDYRGRLSPVPVPRAVPVKRPRVTVPLVRRVKTNVPVKLFARSTAVTTSSAKIKLKSSELQAIKTELTQIKSNIDALLSRLEQIAAEQKANPDGKKKGDGGGAGGGGGGGGSGGGGSGGGGGGGSSRPPAPQENTTSEAGLPQGEARTRDDGDEEGLLTHSEEELEHSQDTDADDGALQ
B2: in experiment [1], the “Relative to UNC0638 UNC Heavy” value turned out to be 0.12 log base 2, the “Relative to UNC0638 UNC Light” value amounted to 0.31 log base 2 and the “Relative to UNC0638 Average” value is given as 0.21 log base 2. Further, in experiment [2], the “3xMBT/D355N UNC Heavy” value is on record as 1.15 log base 2 and the “3xMBT/D355N UNC Light” value is listed as 3.37 log base 2.

B3: CPSF6 (protein, UniProt Q16630 1-551, looked up)
Cleavage and polyadenylation …: MADGVDHIDIYADVGEEFNQEAEYGGHDQIDLYDDVISPSANNGDAPEDRDYMDTLPPTVGDDVGKGAAPNVVYTYTGKRIALYIGNLTWWTTDEDLTEAVHSLGVNDILEIKFFENRANGQSKGFALVGVGSEASSKKLMDLLPKRELHGQNPVVTPCNKQFLSQFEMQSRKTTQSGQMSGEGKAGPPGGSSRAAFPQGGRGRGRFPGAVPGGDRFPGPAGPGGPPPPFPAGQTPPRPPLGPPGPPGPPGPPPPGQVLPPPLAGPPNRGDRPPPPVLFPGQPFGQPPLGPLPPGPPPPVPGYGPPPGPPPPQQGPPPPPGPFPPRPPGPLGPPLTLAPPPHLPGPPPGAPPPAPHVNPAFFPPPTNSGMPTSDSRGPPPTDPYGRPPPYDRGDYGPPGREMDTARTPLSEAEFEEIMNRNRAISSSAISRAVSDASAGDYGSAIETLVTAISLIKQSKVSADDRCKVLISSLQDCLHGIESKSYGSGSRRERSRERDHSRSREKSRRHKSRSRDRHDDYYRERSRERERHRDRDRDRDRERDREREYRHR
For B3, in experiment [1], the “Relative to UNC0638 UNC Heavy” value amounted to 0.30 log base 2, the “Relative to UNC0638 UNC Light” value worked out at 0.09 log base 2 and the “Relative to UNC0638 Average” value stood at 0.20 log base 2. In addition, in experiment [2], the “3xMBT/D355N UNC Heavy” value is 1.89 log base 2 and the “3xMBT/D355N UNC Light” value is 3.10 log base 2.

B4: HPSE2 (protein, UniProt Q8WWQ2 42-592, looked up)
Inactive heparanase-2: GDRRPLPVDRAAGLKEKTLILLDVSTKNPVRTVNENFLSLQLDPSIIHDGWLDFLSSKRLVTLARGLSPAFLRFGGKRTDFLQFQNLRNPAKSRGGPGPDYYLKNYEDDIVRSDVALDKQKGCKIAQHPDVMLELQREKAAQMHLVLLKEQFSNTYSNLILTARSLDKLYNFADCSGLHLIFALNALRRNPNNSWNSSSALSLLKYSASKKYNISWELGNEPNNYRTMHGRAVNGSQLGKDYIQLKSLLQPIRIYSRASLYGPNIGRPRKNVIALLDGFMKVAGSTVDAVTWQHCYIDGRVVKVMDFLKTRLLDTLSDQIRKIQKVVNTYTPGKKIWLEGVVTTSAGGTNNLSDSYAAGFLWLNTLGMLANQGIDVVIRHSFFDHGYNHLVDQNFNPLPDYWLSLLYKRLIGPKVLAVHVAGLQRKPRPGRVIRDKLRIYAHCTNHHNHNYVRGSITLFIINLHRSRKKIKLAGTLRDKLVHQYLLQPYGQEGLKSKSVQLNGQPLVMVDDGTLPELKPRPLRAGRTLVIPPVTMGFYVVKNVNALACRYR
In the case of B4, in experiment [1], the “Relative to UNC0638 UNC Light” value was found to be 4.14 log base 2 and the “Relative to UNC0638 Average” value is on record as 4.14 log base 2. Moreover, in experiment [2], the “3xMBT/D355N UNC Heavy” value is listed as −0.14 log base 2 and the “3xMBT/D355N UNC Light” value stood at 3.81 log base 2.

B5: ORC3 (protein, UniProt Q9UBD5 1-711, looked up)
Origin recognition complex …: MATSSMSKGCFVFKPNSKKRKISLPIEDYFNKGKNEPEDSKLRFETYQLIWQQMKSENERLQEELNKNLFDNLIEFLQKSHSGFQKNSRDLGGQIKLREIPTAALVLGVNVTDHDLTFGSLTEALQNNVTPYVVSLQAKDCPDMKHFLQKLISQLMDCCVDIKSKEEESVHVTQRKTHYSMDSLSSWYMTVTQKTDPKMLSKKRTTSSQWQSPPVVVILKDMESFATKVLQDFIIISSQHLHEFPLILIFGIATSPIIIHRLLPHAVSSLLCIELFQSLSCKEHLTTVLDKLLLTTQFPFKINEKVLQVLTNIFLYHDFSVQNFIKGLQLSLLEHFYSQPLSVLCCNLPEAKRRINFLSNNQCENIRRLPSFRRYVEKQASEKQVALLTNERYLKEETQLLLENLHVYHMNYFLVLRCLHKFTSSLPKYPLGRQIRELYCTCLEKNIWDSEEYASVLQLLRMLAKDELMTILEKCFKVFKSYCENHLGSTAKRIEEFLAQFQSLDETKEEEDASGSQPKGLQKTDLYHLQKSLLEMKELRRSKKQTKFEVLRENVVNFIDCLVREYLLPPETQPLHEVVYFSAAHALREHLNAAPRIALHTALNNPYYYLKNEALKSEEGCIPNIAPDICIAYKLHLECSRLINLVDWSEAFATVVTAAEKMDANSATSEEMNEIIHARFIRAVSELELLGFIKPTKQKTDHVARLTWGGC
For B5, in experiment [1], the “Relative to UNC0638 UNC Heavy” value came to 0.25 log base 2, the “Relative to UNC0638 UNC Light” value is recorded as 0.17 log base 2 and the “Relative to UNC0638 Average” value is 0.21 log base 2. For the same molecule, in experiment [2], the “3xMBT/D355N UNC Heavy” value is 1.54 log base 2 and the “3xMBT/D355N UNC Light” value stood at 2.54 log base 2.
